Columns and labels:
[1] = molecular target: T1, VHL (von Hippel-Lindau tumor suppressor protein), full-length (Homo sapiens (Human), UniProt P40337 1-213, 35S-methionine labeled in the in vitro assays); assay: co-immunoprecipitation with anti-FLAG, in vitro translated proteins
T1 construct: also called 35S-labeled VHL; 35S-labeled full-length VHL

[2] = molecular target: 35S-labeled, in vitro translated full length HIF-1 alpha (human, UniProt Q16665 1-826, 35S-methionine labeled); assay: co-immunoprecipitation with anti-GAL4, in vitro translated proteins
[3] = molecular target: T1, VHL (von Hippel-Lindau tumor suppressor …); assay: as above

B1: FLAG-tagged mutant N-TAD of HIF-1 alpha (PYI triplet substituted with three aspartic acid residues) (other, not shown: small tags and cut ends)
chain: KLELVEKLFAEDTEAKNPFSTQDTDLDLEMLADDDPMDDDFQLRSFDQLSPLES
notes: also called mt N-TAD; PYI mutant N-TAD
[1]
  binding result: no binding

B2: GAL4/VHL 114-154 fragment (other)
chain: MKLLSSIEQACDICRLKKLKCSKEKPKCAKCLKNNWECRYSPKTKRSPLTRAHLTEVESRLERLEQLFLLIFPREDLDMILKMDSLQDIKALLTGLFVQDNVNKDAVTDRLASVETDMPLTLRQHRISATSSSEESSNKGQRQLTVSGHLWLFRDAGTHDGLLVNQTELFVPSLNVDGQPIFANITLP
[2]
  binding result: no binding

B3: GAL4/HIF-1 alpha 778-826 (other)
chain: MKLLSSIEQACDICRLKKLKCSKEKPKCAKCLKNNWECRYSPKTKRSPLTRAHLTEVESRLERLEQLFLLIFPREDLDMILKMDSLQDIKALLTGLFVQDNVNKDAVTDRLASVETDMPLTLRQHRISATSSSEESSNKGQRQLTVSLACRLLGQSMDESGLPQLTSYDCEVNAPIQGSRNLLQGEELLRALDQVN
[3]
  binding result: no binding

Reference: patent US20020048794A1 (published 2002)
